The supplement of paper PMC12764529
± gives the half width of the 95% confidence interval.

Assay: folding stability dG unfold (combined trypsin and chymotrypsin); higher = more stable
Procedure, shortened: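 Designed mini-proteins with no cysteine and under 80 residues were kept only if AlphaFold2 dimer inter-PAE was above 15. In a PA-tagged cDNA display construct, they were digested with trypsin and chymotrypsin and then sequenced. K50 was inferred by Bayesian fitting of counts, and unfolding free energy was derived per protease or combined against a sequence-predicted unfolded-state K50 and a shared folded-state K50.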

| Sequence | folding stability dG unfold |
| --- | --- |
| SAGGSAGGSASITLTLGDTPLEVSTDPSTNTYTFTYPAPGLVLTLDVSTGKLSARPLAELASAGGSAGGSAG [r3_137_JUSTAS] | 1.13 ± 0.077 kcal/mol |
| SAGGMIVTTIPGSPAIKVEIPFPETPFSATITIPIAPDGTVTADLKPHPDMSEELIEKIKELAKELLKSAGG [r13_139_JUSTAS] | 0.849 ± 0.092 kcal/mol |
| SALSASELAKRVRDRIKELSNEEGYNVDIKVDVQPNEDGSVTVHIQFDSPWMIKRIKEKLPPGVNVEIMSAG [r14_491_TrROS] | 2.75 ± 0.05 kcal/mol |
| SAGGSAGGPVITFPWNDIPELLERARENGDPEYYIRVSPDDPGNFTIMPPEEAEENGMPVIPLDSAGGSAGG [r6_710_TrROS] | -0.668 ± 0.33 kcal/mol |
| SAGGSGSSMSVSVSVTTSPVSVDPNKPVPIEVATTTTPVSSYDPVTGTSSTTTTTTTVPLGNPEAASAGGSA [r2_489_JUSTAS] | 1.98 ± 0.051 kcal/mol |
| SAGGSMVIRVETPEEAEEAARELAERLRELFPEVKELEIKVKVEVVDEETGEEKEYEFTIKLKLPPSAGGSA [r2_393_TrROS_Hall] | 2.62 ± 0.24 kcal/mol |
| SAGGPEVEAERFGDTVLVRITLLDPETGEPYEFLAIATRRPDGTVTVTIIHPDGRPSTIPLPLLPLASAGGS [r16_154_TrMRF] | 2.26 ± 0.14 kcal/mol |
| SAGGSAGGSAMTVSIPPEVITSVEYDPSTNKVTITPSDGSVKTYDVESPEEVFKANNIGPESAGGSAGGSAG [r3_34_JUSTAS] | 0.753 ± 0.095 kcal/mol |
| SAGGSAGGSAGGSPVRVKLKFKKKFTVLLPLTDEDDEILDVEKEYTVEITLEVTLPPDLSAGGSAGGSAGGS [r4_326_TrMRF] | 4.01 ± 0.48 kcal/mol |
| SAGGSAGGSAGSVIVTSTTSTLPNGTVVTNETVSDPSNPGVTTKKTSTTYPDGSVTTTESSAGGSAGGSAGG [r11_483_JUSTAS] | 1.36 ± 0.057 kcal/mol |
| SAGMIEILELPPNKAIVKIYDPKTGKFEIIEIDFGGKDGKPLSLEELIEKIKKLAKELYPDLEINVTPLSAG [r5_293_TrMRF] | 2.61 ± 0.17 kcal/mol |
| SAGGMKPGESSTVPPVVERTTSPDSLGNPRYTVTRVTEITVTYFPDSINVTVTTETTVVSTATPGLLSAGGS [r8_70_JUSTAS] | 1.78 ± 0.07 kcal/mol |
| SAGGSEPEPLRVSEITDIKESVLPNGTLKATVTLKLPEKDEEVEIEVEASSEEEIEEAIEEIVKLESAGGSA [r2_248_JUSTAS] | 0.482 ± 0.21 kcal/mol |
| SAGGKTKEIELEILFEPVKVKKKKKNKNGKEEEVEEKEFKPVLVRITLKIENGKITEIKIEVEKLDDLSAGG [r13_935_TrROS_Hall] | 2.93 ± 0.26 kcal/mol |
| SAGGKEIKIEVELDEDGNLTVTITLPDGRVVRITFTPGKITVEVFDAETGELVEEKTLTADELLELLSAGGS [r8_476_TrROS_Hall] | 3.67 ± 0.13 kcal/mol |
| SAGGSAGGSAGMKTITKKVKSEEEAKKLAEELKKKGYKVEVEVKKDPKTGNYIVTITIELPESAGGSAGGSA [r18_455_JUSTAS] | 3.91 ± 0.39 kcal/mol |

| Sequence | folding stability dG unfold |
| --- | --- |
| KKTYTAEEIRKLAEKLGLEVPEGDLEIKVVFKDNKKTYTIKPGEEYTLEEILEKLKKEKPNIVKIEIKKKPS [r1_135_TrROS_Hall] | 1.99 ± 0.27 kcal/mol |
| SAGGSAGGSAGGMITTGITVSATDPNSSTSYTVTVPSSVPSSTFPANTAVGSAALAKLLASAGGSAGGSAGG [r17_412_JUSTAS] | -0.449 ± 0.21 kcal/mol |
| SLSPALEGPEALAALAAADPVPPLPVLTVKNSTGDPEKALEEVLKEHPELKPELIVEVEVGEGTLTITVLSA [r9_723_JUSTAS] | 0.48 ± 0.19 kcal/mol |
| PKYVIKAVNPKVGEVKTIEVDDDPEKAIEALKALKKADPDIKFYISGVKSDELIEAAKEAGLEDLNFTEVES [r1_114_TrMRF] | 4.02 ± 0.32 kcal/mol |
| SAGGSVEKKLLEYDPATGNRLVEVTAKAKPEVVEELIAKGYDPSTISPLGDGTVRALLTIPPDEKLDSAGGS [r16_755_JUSTAS] | -0.248 ± 0.21 kcal/mol |
| SAGFKIKIEPIEVLPNGTVKYKAIIETEKEKYEVEAFYNPKTGLIYIYSPKTGSIMKINPKTGKIILIPSAG [r14_260_TrMRF] | 4.03 ± 0.2 kcal/mol |
| MITPEEAIELAKEKAKELLEKAGPGTPSVVVEIKAEDGRVVKVEVDPVKKVINITVYDKGGKKVAEKIIEES [r1_370_JUSTAS] | 2.38 ± 0.11 kcal/mol |
| SAGGMTITVKPPDGTVITYTSETLPEIIAKLDPNGTYTITIEVPKVDPSNGGARPIVKTYTVPKERISAGGS [r16_806_JUSTAS] | 1.19 ± 0.17 kcal/mol |
| SAGGSAGGSAGEIEVTVTFTGDDGYVVEVKYTFEVPEPNNPIIKKVEVKVKKLKPNEPASSAGGSAGGSAGG [r11_517_TrMRF] | 2.22 ± 0.23 kcal/mol |
| SAGKKKKYKIKIKIEISEDGTIKITIEIFDKNGKLVKKIEITIKLPKVKLSEEELKEAAKKGDLEKALKSAG [r5_944_TrROS_Hall] | 2.95 ± 0.7 kcal/mol |
| SAGGSAGGMTFTIPPGKPVTIRVYNRNGELIEEVTVTGAGARIHVSEIPGTGELKITRIDEIPPSAGGSAGG [r6_523_TrMRF] | 2.72 ± 0.087 kcal/mol |
| SAGGSAGGSDPSEVRLTFTVTVELTFDAVLFYEPGTGRLVAVAPYLRVEVEVEVTLTFPADALSAGGSAGGS [r12_600_TrMRF] | 4.63 ± 0.21 kcal/mol |
| SAGGSAGGSAGGPKGYFRIRIEIPNGQKREIWFPPDDAEEWVKSLGIPEENVKITKIEPYSAGGSAGGSAGG [r7_211_TrROS] | 0.868 ± 0.18 kcal/mol |
| SAGMKKVEIVEEVKDPETNEPVILVRDKDTGELVKFHPNGKVTIYDLNDPNKAKVFEAKISDVLEELANSAG [r5_491_TrMRF] | 0.847 ± 0.21 kcal/mol |
| WKIVEITDIEPDPDGWLEIKITIEPPEPGDPIKIMIFHPNQFHEFEIDPESPEIEIRIPPGFDNLHIFIYVS [r1_428_TrROS] | 3.9 ± 0.57 kcal/mol |
